# A protein production outcome set (Wang et al. 2014)
# Test: label from the status in PepcDB records
# 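Also: failed if final PepcDB status was selected cloned or expressed and not failed if soluble or beyond.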
row,Sequence,protein production
1,MKILKNSYESYIIAEFFKYFLITFLFFFFVFFINQILFFMRILLQNYVPFFKAFIFIIYSLPMVIALSPPFASLISVILTIHKFKLHNEILAFRSIGISIFDLLVPFFKLGIVIAFVSFISNDILLPLGSIGRLKIFNEIKEEVPHLVLKPYSSKQYGDLIFVSGEKSENGYKNVTFFDNTGLKGFDRIFMAKNLDIRKENFQVYFILNDVLSIALTDSESGFYDYFYADKMKYSIDQVTFSDSFLLNYVTPSQMSMRDVIKLIKKQNNLIADSNIKNNLEGDFLSLNFSNLYLNYLYNQNYYVDESYVFENLNYMYNLNLNFKPYQDRSMKQNLALFNLEFYQKISLPLSVLFFIFLAFSMGMYSNRKYSIILELVISIIVCVFYWVMFIGGKVYTVQYAPSPIIVTILPNLILIIAGAILFLRLLKK,failed
2,MRRTLVVPDVLLLGTLLAGLLLLSGCEGDYRPRAVGPIGEITVVMDSSHWTGPSGEALRANVTPWVETLPVSERSFQLRHLELTDERTYERVQDLKNVIIAAPLSDSTNETSFLRRRLSDEAEQAILDGQTAVVPKPNLWRRSQRIYYVAAASPDALAETFQSQGTQIRDTFTEATLQRMDRNMYEDDRRSALEDTLMQRHGFAVNMQSDFQIAVDTTTGSEGFVWLRRLLAQTRREFFVYYVEDVSPDQITPEWIYNTRDSLTRRHLRGNVRGFAKIDYRRPLKTEQRSFLDRYAYDSRGLWYMVAPLGGGNELRPVGGGGPFVNYTFYDQATDRVYMLDGSIFAPDNDKIDLLRQMEVMARTFRTAEGSRSPDASPTAAKLEHHHHHH,failed
3,EARGFTAEDFALSHPGGALGRKLLLRVNDIMHTGDEIPHVGLQATLRDALLEITRKNLGMTAICDDDMNIIGIFTDGDLRRVFDTGVDMRDASIADVMTRGGIRIRPGTLAVDALNLMQSRHITCVLVADGDHLLGVVHMHDLLRA,not failed
4,MIKVLIFFGIILLGLCISPWIVGNTGYVYIAAGDYQLETSLAFGIIMLIVFYALFQVLEWLVITVINLLLRSRFIPHQWRRRSAKKHTLMGALAIAEEDWPAAERAMIKGADNGELPALNLLAAARAAQHQNKTAERDQYLARAETQPLAANAVATTRTRYLLKQGEFTLARAELDKLAPTSKSKAPVLKLALELYRAQQDWEALKLLLPILKKRQILDDIQLNSLSVETHSALLQTASLKGEDALEQCWQWLSRDERNQSEFLAIYTMGLCRFNRKEQAIKLLSKKLRSSPESALLEVIPQIVTAHDTDIRKQLLKHEITHENNADYQRCLALLYQQTRDMKEAKTCWQNVCRIAPTKDSWLSLARIQEQLGEQGHANQSYRQAVTL,failed
5,MHSDSGSDSGSDSGSGSPMVSSIHPSEPIQPMEHVLEEADARLLTEVGFLAAAVSDLTRADAIFNALQRVRPGRTHPCIGLAVARMNAGLPDEAAEILANFQPAQPEDRSELDAWCGFALLLAGRSDEARRMLQRAIDAGGEAARLAQVVLDSGPAMMRPAPLQSEPLPGAPG,failed
6,MKSQNPSKRNLPGVIIAYFLIYVVWGSTYFFIGVALKDFSPFLLGALRFTTAGLILLGICYLRGEQIFKKSLVKRSAVSGIVLLFVDMAVVMLAQRYLTSSLVAIIASSTALWILLLDVPMWRTNFRNPLTIAGGGIGFGGVVMLYAEQLNAEWLHPQSERGILLLVFGCISWALGTLYAKYRSSREEEVNAFAGSAWQMLFASVMFWICAVVNGDVREADLSTVSVTSWFSLLYLISFGSLLAYSAYVWLLKVRPAAEVGTHAYVNPFIAVLLGVSFGNEQVTFVQLSGLLVILLGVMLISRKRNKMKSTAISR,failed
7,MKKTFEKVYHLKLSIKGITPQIWRRIQVPENYTFLDLHKAIQAVMDWEDYHLHEFEMVNPKTGMLDKIGAEGDDFDAFGGPLVSEKKAKLSDYFTLENKEALYTYDFGDNWQVKVRLEKILPRKEGVEYPICTAGKRAAVPEDSGGVWGYEEMLEVLKDSEHEEYEDTVLWLGDDFDPEYFDPKDVSF,not failed
8,ELCNALADKISLKDRFGFSLYIALFDKVSSLGSGSDHVMDAISQCEQYAKEQGAQERNAPWRLFFRKEVFTPWHSPSEDNVATNLIYQQVVRGVKFGEYRCEKEDDLAELASQQYFVDYGSEMILERLLNLVPTYIPDREITPLKTLEKWAQLAIAAHKKGIYAQRRTDAQKVKEDVVSYARFKWPLLFSRFYEAYKFSGPSLPKNDVIVAVNWTGVYFVDEQEQVLLELSFPEIMAVSSSRECRVWLSLGCSDLGCAAPHSGWAGLTPAGPCSPCWSCRGAKTTAPSFTLATIKGDEYTFTSSNAEDIRDLVVTFLEGLRKRSKYVVALQDNPNPAGEESGFLSFAKGDLIILDHDTGEQVMNSGWANGINERTKQRGDFPTDCVYVMPTVTMPPREIVALVTMTPDQRQDVVRLLQLRTAEPEVRAKPYTLEEFSYDYFRPPPKHTLSRVMVSKARGKDRLWSHTREPLKQA,failed
9,MPEKPTEDARFYGRRKGKPLRATRQRLLDTMLPALTLPLAGLGEGERLDPRGLFPRPVDQLWLEIGFGGGEHLVAQAAAHPEVGLIGSEVFAYGVGKALSQIDETGVDNIRLWPEDVRQVLPALPDGCLQRLFVLFPDPWPKRRHARRRMIQPARLDDFARLLADGGELRVASDDMGYVRWTLMHVTAHPAFRWTAQGPTDWRERPADWVETRYEAKALQAGRKPAYLIFRRRPRAADPGTLAEAPAGEGADNNP,failed
10,MRQVFSTDQEYKADKSPENLFPLTEVTRKMEYEERFDQAVRVTGVGLFVNLGLTIFKLLAGILGNSTAMVADAVHSLSDFLTDVVVIFGFKIAKKPVDESHNYGHGKIETLSASLVGLMLLLVAGQILYYGVQKTLMFIEAGTLEQPAIIALYAALASVISKEIMYQYTILKARKINSMALTANAWHHRSDAFSSFCTMIGIGAAVFLGGKWVVLDPLMAVFLSFIILKVSLKIFHSSINELVEASLDEKTESEIRQIIQKTEGVKALSNLKTRRIGNNIAVDIRIKVDNALDIGEANRISIHVEHNLKKAFGPYTYVLVKAEPYEREPWGNPEDEKAREHPVNPEKNKVCLRNHSN,failed
11,MQREKVDVLVIGAGPAGTVAASLVNKSGFKVKIVEKQKFPRFVIGESLLPRCMEHLDEAGFLDAVKAQGFQQKFGAKFVRGKEIADFNFSDQFSNGWNWTWQVPRGNFDKTLADEAARQGVDVEYEVGVTDIKFFGTDSVTTIEDINGNKREIEARFIIDASGYGRVIPRMFGLDKPSGFESRRTLFTHIKDVKRPVAAEMEGNRITAVVHKPKVWIWVIPFSNGNTSVGFVGEPSYFDEYTGTPEERMRAMIANEGHIAERFKSEEFLFEPRTIEGYAISASKLYGDGFVLTGNATEFLDPIFSSGATFAMESGSKGGKLAVQFLKGEEVNWEKDFVEHMMQGIDTFRSFVTGWYDGTLHAVFFAKNPDPDHKRMICSVLAGYVWDKNNPFVKKHNTILKTLAKVIQMGEEALEHHHHHH,not failed
12,MPDLMHSELTMSGPEQSLLAGALLGAGLPADAHRHLELAGRDYQSEALAEQHLREAHLLAPDHAAVLIGLYRFYFYKGRLGEALEVAQACLCKAARDNGLASDWRKVRRGDAEFSSYSAVLPRFYLFALKAYAYLQMRLGQLDEGHAAVEKLLELDPTDKVGAAVLLDVWRRIGLEHHHHHH,not failed
13,MENMIVIMAGGRSSRMGAEKPILKVNGKPMILRVYEESTKVGETLVAISKNTPKTRELCIKEGIPLIETPGEGYVEDVRYLLKELGSFVSVSADLPFVKACDIAEVKKAFDGKTSLTGVLPLSKVPTDLRPVVYKGYVIVGLNGVGFEGEKFYELSNPLLALNVNTPEELKLANRIAKLIGLEHHHHHH,failed
14,MPKLPPLSLYIHIPWCVQKCPYCDFNSHAQKSDIPEQDYIYHLLQDLQADLQRFKDSIQQRKLHSIFIGGGTPSLFSAESIAYLLKEIKKQIDFEDNIEITLEANPGTVEAERFKGYVSAGIMRISMGIQSFNDDKLQRLGRIHNAAEAKSAVNLAKVSGLKSFNLDLMHGLPNQTLEEALDDLRQAIELSPPHISWYQLTIEPNTMFAYRPPKLPDDDALWDIFEQGHQLLTMAGYQQYETSAYAKAGFQCKHNLNYWRFGDYLAIGCGAHGKLTFPTGEITRFSKTKHPKGYLRGEYLYEEKNVPKIDRPFEFFMNRFRLLEAVPKQEFEDYTGLSQSAVKNQIDFAIQQNYIVENADSWQITEHGKLFLNELLELFLTEELEHHHHHH,not failed
15,MQRAAVFDVDGTLVDTNHLHVTTWWEAFRQAGHRVPMHAVHRAVGLASGDLVARLLGEDRDKEQDAELSAAHKALYGQYFDRLPALPGAGDLLRRLAADGWTVVLATSAGGSELGALRRAIDADDAIEATASADDVDAGKPAPEPVEHALELAGVPAERAVFVGDTVWDMRAGSRAGVRCVGVLCGGLPRADLEEAGAEAVYADPADLLASLRGSPLA,failed
